12 proteins from patent US11491212 can be followed below.

Chain of Factor X, P00742 (P00742 whole entry, looked up): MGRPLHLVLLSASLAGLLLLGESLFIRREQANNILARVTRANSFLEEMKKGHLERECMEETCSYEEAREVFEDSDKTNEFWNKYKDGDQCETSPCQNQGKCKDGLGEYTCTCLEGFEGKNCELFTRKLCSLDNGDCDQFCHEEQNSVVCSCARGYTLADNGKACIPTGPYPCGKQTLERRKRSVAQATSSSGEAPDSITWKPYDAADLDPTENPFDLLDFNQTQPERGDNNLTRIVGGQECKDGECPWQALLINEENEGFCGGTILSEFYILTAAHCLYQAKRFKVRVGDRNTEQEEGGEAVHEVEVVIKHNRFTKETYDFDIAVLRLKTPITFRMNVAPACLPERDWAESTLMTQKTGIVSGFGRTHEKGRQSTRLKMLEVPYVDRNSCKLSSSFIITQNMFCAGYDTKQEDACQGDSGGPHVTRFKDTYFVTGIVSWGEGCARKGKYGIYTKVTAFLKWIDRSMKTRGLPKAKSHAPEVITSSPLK
Chain of Factor X (FX), P00742 (P00742 whole entry, looked up): as above

B1: FIXa-R318Y/R338E/R403E/E410S (protein)
chain 1: not shown
chain 2: not shown
A word on the kcat: it is the number of substrate molecules converted per active site and unit of time at saturation. What is called KM is the concentration of substrate that gives half-maximal velocity. Turning to B1, the kcat in the data set with Factor X, P00742 was determined as 7.4 s⁻¹. Moreover, in the data set with Factor X (FX), P00742, the “% of WT kcat/KM (against Catalyst Biosciences WT FIXa)” value is recorded as 458%; the Michaelis constant (KM) came to 0.0364 µM; the kcat/KM for activation of FX by FIXa in the Xase complex (FVIIIa, PC/PS vesicles, Ca2+), fluorogenic Spectrafluor FXa read-out stood at 2.1e+08 M⁻¹ s⁻¹.

B2: FIXa-Y155F/K228N/R318Y/R338E/R403E/E410N (protein)
chain 1: not shown
chain 2: not shown
With B2, the kcat in the data set with Factor X, P00742 came out at 6.7 s⁻¹. Also, in the data set with Factor X (FX), P00742, the “% of WT kcat/KM (against Catalyst Biosciences WT FIXa)” value is 356%; the Michaelis-Menten constant (KM) was determined as 0.0408 µM; the kcat/KM for activation of FX by FIXa in the Xase complex (FVIIIa, PC/PS vesicles, Ca2+), fluorogenic Spectrafluor FXa read-out was 1.6e+08 M⁻¹ s⁻¹.

B3: FIXa-D104N/K106S/Y155F/K247N/N249S/R318Y/R338E/R403E/E410N (protein)
chain 1: not shown
chain 2: not shown
Turning to B3, the kcat in the data set with Factor X, P00742 is 6.9 s⁻¹. Besides, in the data set with Factor X (FX), P00742, the “% of WT kcat/KM (against Catalyst Biosciences WT FIXa)” value stood at 292%; the KM was found to be 0.0518 µM; the kcat/KM for activation of FX by FIXa in the Xase complex (FVIIIa, PC/PS vesicles, Ca2+), fluorogenic Spectrafluor FXa read-out amounted to 1.3e+08 M⁻¹ s⁻¹.

B4: FIXa-I251S/R318Y/R338E/E410N (protein)
chain 1: not shown
chain 2: not shown
Consider B4, for which the kcat with Factor X, P00742 stood at 6.4 s⁻¹. In the data set with Factor X (FX), P00742, the “% of WT kcat/KM (against Catalyst Biosciences WT FIXa)” value was 849%; the KM was 0.0161 µM; the kcat/KM for activation of FX by FIXa in the Xase complex (FVIIIa, PC/PS vesicles, Ca2+), fluorogenic Spectrafluor FXa read-out is 3.9e+08 M⁻¹ s⁻¹.

B5: FIXa-Y155F/K247N/N249S/R318Y/R338E/R403E/E410N (protein)
chain 1: not shown
chain 2: not shown
For the protein B5, the kcat in the data set with Factor X, P00742 was 6.2 s⁻¹. Besides, in the data set with Factor X (FX), P00742, the “% of WT kcat/KM (against Catalyst Biosciences WT FIXa)” value is given as 405%; the KM turned out to be 0.0363 µM; the kcat/KM for activation of FX by FIXa in the Xase complex (FVIIIa, PC/PS vesicles, Ca2+), fluorogenic Spectrafluor FXa read-out came to 1.9e+08 M⁻¹ s⁻¹.

B6: FIXa K228N/R318Y/R338E/T343R/R403E/E410N (protein)
chain 1: not shown
chain 2: not shown
In general, kcat/KM refers to the second-order rate constant that governs catalysis at low substrate concentration. With B6, in the data set with Factor X, P00742, the “% of WT kcat/KM” value was determined as 593% and the kcat/KM was determined as 2.7e+08 M⁻¹ s⁻¹. Besides, in the data set with Factor X (FX), P00742, the kcat (s^-1), activation of FX by FIXa in the Xase complex amounted to 10.5 s⁻¹.

B7: FIXa R318Y/T343R/E410N (protein)
chain 1: not shown
chain 2: not shown
As to B7, in the data set with Factor X, P00742, the “% of WT kcat/KM” value is reported as 135% and the kcat/KM was 6.2e+07 M⁻¹ s⁻¹. For the same protein, in the data set with Factor X (FX), P00742, the kcat (s^-1), activation of FX by FIXa in the Xase complex was found to be 3.2 s⁻¹.

B8: FIXa K228N/K247N/N249S/R318Y/T343R/R403E/E410N (protein)
chain 1: not shown
chain 2: not shown
Take B8: in the data set with Factor X, P00742, the “% of WT kcat/KM” value turned out to be 153% and the kcat/KM is 7.1e+07 M⁻¹ s⁻¹. The kcat (s^-1), activation of FX by FIXa in the Xase complex with Factor X (FX), P00742 worked out at 8.1 s⁻¹.

B9: FIXa-K228N/K247N/N249S/R318Y/R338E/R403E/E410N (protein)
chain 1: not shown
chain 2: not shown
Turning to B9, the kcat in the data set with Factor X, P00742 was 7.1 s⁻¹. For the same protein, in the data set with Factor X (FX), P00742, the “% of WT kcat/KM (against Catalyst Biosciences WT FIXa)” value is 352%; the KM was found to be 0.0497 µM; the kcat/KM for activation of FX by FIXa in the Xase complex (FVIIIa, PC/PS vesicles, Ca2+), fluorogenic Spectrafluor FXa read-out is 1.6e+08 M⁻¹ s⁻¹.

B10: FIXa K228N/K247N/N249S/R318Y/R338E/T343R/E410N (protein)
chain 1: not shown
chain 2: not shown
For the protein B10, in the data set with Factor X, P00742, the “% of WT kcat/KM” value was found to be 278% and the kcat/KM was determined as 1.3e+08 M⁻¹ s⁻¹. In addition, in the data set with Factor X (FX), P00742, the kcat (s^-1), activation of FX by FIXa in the Xase complex turned out to be 4.7 s⁻¹.

B11: FIXa-Y155F/K247N/N249S/R318Y/R338E/E410N (protein)
chain 1: not shown
chain 2: not shown
B11: in the data set with Factor X, P00742, the kcat was 4.5 s⁻¹. In addition, in the data set with Factor X (FX), P00742, the “% of WT kcat/KM (against Catalyst Biosciences WT FIXa)” value was 717%; the KM amounted to 0.0147 µM; the kcat/KM for activation of FX by FIXa in the Xase complex (FVIIIa, PC/PS vesicles, Ca2+), fluorogenic Spectrafluor FXa read-out came to 3.3e+08 M⁻¹ s⁻¹.

B12: FIXa K228N/K247N/N249S/R318Y/R338E/T343R/R403E (protein)
chain 1: not shown
chain 2: not shown
B12: in the data set with Factor X, P00742, the “% of WT kcat/KM” value was determined as 636% and the catalytic efficiency (kcat/KM) turned out to be 2.9e+08 M⁻¹ s⁻¹. Moreover, the kcat (s^-1), activation of FX by FIXa in the Xase complex with Factor X (FX), P00742 was determined as 10.9 s⁻¹.
